From the DeepSol protein solubility set

assay: soluble on expression in E. coli; label from the status in PepcDB or PDB records

Sequence	soluble on expression in E. coli
ATQSPGDSRRLSIQRAIQSLVHAAQCRNANCSLPSCQKMKRVVQHTKGCKRKTNGGCPICKQLIALAAYHAKHCQENKCPVPFCLNIKQKLRQQQLQHRLQQAQMLRRRMASMQ	soluble
MTTRILTGITPTGTPHLGNYAGAIRPAILASRRSDVDSFYFLADYHALIKCDDPARIQRSRLEIAATWLAGGLDVERATFYRQSDIPEIPELTWLLTCVSAKGLLNRAHAYKAAVDRNVEAGEDPDAGVTMGLYSYPVLMAADILMFNAHKIPVGRDQVQHVEMARDIGQRFNHLFGNGREFFVLPEAVIEENVATLPGLDGRKMSKSYDNTIPLFSPSRQLKDAIARIVTDSRAPGEPKDPDSSHLFLLYSAFASAEQVAAFRQELLEGLAWGEAKQRLFQLLDNELGEARERYQALIAKPDDIEDILLAGAAKARRIATPFIAELREAVGLRSLREPLKSAESGKKKAAKAARLVSFRDDDGSFRFRLLDAAGEQLLLSRAFADGKAAGAVSKRLLAGETADLRAEGNAFGLWLDGEAVAQSPAFADAAARDAAIERTREALAPQ	not soluble
VALSPLPLPEGLELTGIEGTLWQGQAAQVRWQGMSLGDLNWDLHLSALLLGQLEADIRFGRGSSTQLRGKGVVGVGLSGPYADDFLLSLPAAQAITWLPLPVPLMAQGQLEMAVKQYRFGEPYCQQAEGSLAWSAAQLESPIGALQLGTVVSDFTCQESVVTLKGGQKTAQVSSEFNLSLQPDNRYQAQAWFKPEAEFPESLKEQLSWLPQPDGQGRYPFNQQGQL	not soluble
MQALGLIETRGLLPAIECADVMLKTAQVELVGRDFVGGGLVTISVTGDVGAVKAAVEAGAAAVEKISPLLLVSQHVIPRPHQEIEGMIGPSPAAKQAPPVPQPEKVKALPGFDQTTNKQTIDDFVQEFGLEPCVDALKTLPVLKLRNLAREYKGLAIAGRAISKANKEDLIQQLKEYYNQKHE	not soluble
MFKVTFAFENGSEVEAFANAGDNLLEVARGANVAIDAPCSGNGACGKCRVQLKGGELDSKKTLHISDEEFEKGWRLACMSKICADVEVLVPDIASAYKSRMKVADLSSKEEIAIFEKAKNQVEETGIQLRNSLEVVELQMTEPTLDDTMPDVERLTRALRKFMNLKRIRVPYAVLRKLPDVLRASKFSVKCVVRVTPDDMFVYDIFDAKEDVIMGGLAVDIGTTTVSAVIINMATGEILAKSSSGNGQIRYGADVINRIIETTKPGGIKKLQDAVIKETINPMIHEMCRSIHLPENQIYRMCVASNTTMNHLFAGINADYLRTEPYIPAFFKTNSLFASDVGIEINGDAHIIMAPNIGSYVGGDITAGTLVSMIWNRPEFSLFIDLGTNGELVFGNSDFMMSCACSAGPAFEGGDISCGMRATDGAIEACTIDKETMEPTYKVVGEPGTKPVGLCGSGIIDVISELFMTGIINPKGKFVREGKRVRHDHYGMGSYVIAFEEEAGSVKDVEITEVDIDNFIRAKGAIFSAIRTMLSSLDFDVSMIDDVYVAGGIGSGINMQNAVNIGMFPDVPLEKFHYIGNSSLTGAYLMLLSTQAEKKTYELASNMTYMELSTVPTYMDEFVGACFIPHTDASMFPNVHQRLEHHHHHH	not soluble
VEKVFVVGHKNLDMDALGATVGMAHFASQIVRKSYAVYDDMAMNTDIERAVERLKEDGQSPLITLSEAEELVNQHSLLIMVDHSKINLTLSQDFYDRFNEVIVVDHHRRDDDFPENAVLTFIESGASSACELVTELLQFQGAPERLSKIQASILMAGIMLDTKNFSTRVTSRTFDVASYLRSLGSDSGEIQMISATDF	not soluble
MVAISDLRGLSLPEALGGIVEAIENVEVGEQVQFVLDSDADVEAITTHLSEYAECSAEKGDRFILLKVTKRAEFKADEEEEFRIDENTNVGRLIERYPEATEILASYGFTPLRNPVLRKTLAKTITLGRAKMLKKLSDEEFEEMLRKLRELRG	not soluble
MGSDKIHHHHHHMIHVAHHYEMRHPTADIQETSMSSAQEERLRFIDFRLMFLGDVSRQDLTDRFGISEPAATRDLTQYRERCAANMEYSHVQRAYLRNYNFAPLYDHESTEALAMIAHGHLALPRRERKPLLRCDLPIQLDSPDSMVVSTITRAINHQHVISIDYRSHSSGETRRQIVPFALVDNGLRWHIRAYDRRRLRFSDFVISRISNPTIEESVVLTHERWEHDIQWNRIVELELVPHPKRPHPETTLFEYGMVNGISRLRVRAAVAGYFLRRWNVDCSPDHCLEGNEYQLWLKNRETLYGVETLEIAPGYL	not soluble
